Legend:
[1] = target: H2AK119ub1-modified nucleosome core particle (NCP) (Xenopus | not stated) (UniProt P0CG47); test: BLI; biotin-labeled nucleosomes immobilised on streptavidin (SA) XT biosensors (Gator), protein in solution; 30 °C, 1000 rpm; 20 mM Tris-HCl pH 7.5, 50 mM NaCl, 1 mM DTT, 0.01% Tween-20; 3 min association, 6 min dissociation
[2] = target: H2AK119ub1-modified nucleosome core particle (NCP) (Xenopus | not stated) (UniProt P0CG47); test: BLI; competition: DNMT3A1 UDR loaded to biosensors pre-loaded with H2AK119ub1-modified NCP and various concentrations of tag-free JARID2(1-60)

Kd [1] [µM]	percent decrease of the DNMT3A1 UDR association response at a JARID2(1-60):DNMT3A1 UDR molar ratio of 32:1 [2] [%]	Substance
0.25		GST-tagged N-terminal segment of JARID2 (residues 1–60) (from UniProt Q92833 1-60) (domain or fragment)
	40	tag-free JARID2 N-terminal segment (residues 1–60) (from UniProt Q92833 1-60) (domain or fragment)
